Assays:
[1] = molecular target: T1, GST-TCF4 (8–411, deletion 66–325) (human, biotin (only where coated on the streptavidin biosensor, Figure 5e)); assay: BLI
T1 chain: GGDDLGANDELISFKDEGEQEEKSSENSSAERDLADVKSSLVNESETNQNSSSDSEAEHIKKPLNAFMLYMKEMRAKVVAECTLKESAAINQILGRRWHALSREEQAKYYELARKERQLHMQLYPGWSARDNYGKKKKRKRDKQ

[2] = molecular target: T2, GST-tagged TCF4 (amino acids 326–411) (human); assay: BLI
T2 chain: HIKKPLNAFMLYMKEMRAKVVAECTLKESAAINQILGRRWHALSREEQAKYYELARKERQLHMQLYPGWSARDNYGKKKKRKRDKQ

B1: TEAD4 (TEA, 38–105) (domain or fragment)
chain: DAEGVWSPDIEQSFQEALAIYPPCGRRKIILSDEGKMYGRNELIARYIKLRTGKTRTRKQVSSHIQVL
**Q.** With B1 as the binder, how does the Kd [1] read?
**A.** 132 nM

**Q.** What about the Kd [2] of the same binder?
**A.** 288 nM
